Reference: patent US20100221257A1
pKd: −log10 of the molar value.

Columns and labels:
[1] = molecular target: human IL-1R1, endogenous on human cells (HeLa cells; whole blood) (human) (UniProt P14778); assay: cell-based or functional assay
[2] = molecular target: Human sIL-1R1 (R&D Systems), un-tagged (human) (UniProt P14778); assay: KinExA, IgG equilibrated in solution with un-tagged sIL-1R1; free IgG captured on IL-1R1 beads
Chain of Human sIL-1R1 (R&D Systems), un-tagged (human) (P14778 18-332 limits assumed): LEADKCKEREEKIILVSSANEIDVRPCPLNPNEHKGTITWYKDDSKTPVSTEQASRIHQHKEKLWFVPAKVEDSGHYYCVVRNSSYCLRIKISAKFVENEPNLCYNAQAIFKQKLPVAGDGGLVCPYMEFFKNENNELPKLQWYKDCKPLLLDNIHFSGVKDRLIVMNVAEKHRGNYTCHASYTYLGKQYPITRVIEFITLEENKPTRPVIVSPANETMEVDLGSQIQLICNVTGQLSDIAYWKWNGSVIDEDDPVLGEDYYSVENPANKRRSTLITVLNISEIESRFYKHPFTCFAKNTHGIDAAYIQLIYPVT

Chain of human IL-1R1, endogenous on human cells (HeLa cells; whole blood) (human) (P14778 18-569): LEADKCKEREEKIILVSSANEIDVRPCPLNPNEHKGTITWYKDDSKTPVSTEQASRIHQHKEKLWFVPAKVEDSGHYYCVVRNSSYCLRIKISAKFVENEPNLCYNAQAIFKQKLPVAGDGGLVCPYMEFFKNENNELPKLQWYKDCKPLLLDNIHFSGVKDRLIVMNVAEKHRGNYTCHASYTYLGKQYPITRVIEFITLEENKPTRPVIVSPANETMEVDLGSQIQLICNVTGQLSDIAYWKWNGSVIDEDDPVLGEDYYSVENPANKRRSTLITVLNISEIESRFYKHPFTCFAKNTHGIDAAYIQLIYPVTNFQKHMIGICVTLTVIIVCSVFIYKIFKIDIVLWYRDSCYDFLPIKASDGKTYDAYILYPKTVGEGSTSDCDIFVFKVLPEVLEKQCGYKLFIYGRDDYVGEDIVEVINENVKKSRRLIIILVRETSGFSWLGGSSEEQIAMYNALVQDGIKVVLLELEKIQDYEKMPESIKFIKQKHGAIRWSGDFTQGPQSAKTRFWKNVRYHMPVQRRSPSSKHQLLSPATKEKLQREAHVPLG

AMG108 IgG2 (antibody)
IC50, inhibition of IL-1 alpha induced IL-8 release in HeLa cells (N = 3) [1]: 11.7 pM
IC50, inhibition of IL-1 beta induced IL-8 release in HeLa cells (run with the GL IgG2 set, N = 5-6) [1]: 5.9 pM
IC50, inhibition of IL-1 beta induced IL-8 release in HeLa cells (run with the IgG1 set, N = 6-7) [1]: 5.3 pM
IC50, inhibition of human IL-1β induced IL-8 release from HeLa cells [1]: 9 pM
pKd [2]: 11.39
